Data as given in article PMC11093611.

T1: rCf48 (recombinant Flag-Cf48 micropeptide) (mouse, UniProt Q3UR78 29-90)
T1 sequence: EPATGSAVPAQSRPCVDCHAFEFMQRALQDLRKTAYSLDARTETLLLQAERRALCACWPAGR


Molecular target: T1, rCf48 (recombinant Flag-Cf48 …)
Assay: EMSA; Thermo LightShift Chemiluminescent RNA EMSA kit (20158); buffer, salt, pH and temperature not given in the material
Conditions: protein: recombinant; tags: FLAG (Fc tag removed with enterokinase); label: biotin

Binder	binding result
Serpine1 mRNA 3'-most 134 nt WT probe (ssRNA) RNA: CCAAAUGUGGGGUCACAUGGUCUUGAAUUUUGUGGGGUACAUAUGCCUUUGUUUGUUUGUUUUCACUUUUGAUAUAUAAACAGGUAAAUGUGUUUUUAAAAAAUAAUAAAAAUAGAGAAUAUGCAGACAAAAAAA	binds
Acta2 mRNA 3'-most 132 nt WT probe (ssRNA) RNA: GGUGACCAGAUAGGUAAAAAACAAUUUUACGUGUAUUUAAAAUUUGGCAAGUAAUAUGGUUUUAUUAAAAUCACAUCUUUUGUAUUAAAGCAUACACACGUGCAUGGAUAUGCAUGCGUGACUUUUAACUUG	binds
